# Patent US7893023B2, “Prodrugs activated by plasmin and their use in cancer chemotherapy” (priority 2000, dated 2011)
# Read-outs that look alike come from different tables or passages of the source. Square brackets hold non-standard residues; d marks the D form. Peptide text beside a SMILES is read from it. * marks the point of attachment. ξ: configuration not given here. X1 = COc1cccc2c1C(=O)c1c(O)c3c(c(O)c1C2=O)C[C@@](O)(C(C)=O)CC3OC1C[C@H](N*)[C@H](C)[C@H](C)O1; AMC = Cc1cc(=O)oc2cc(N*)ccc12; ξL = CC(C)CC(N)C(=O)O; ξK = NCCCCC(N)C(=O)O; ξA = CC(N)C(=O)O
# Experiments:
# B16-B16 melanoma cells = assay: Uptake by B16-B16 cells; type: cell-based, murine
# Procedure: This experiment was conducted to evaluate whether the prodrugs were able to enter cultured cells in their non-hydrolyzed forms. In addition, it was desired to estimate the capacity of the prodrugs to induce detectable levels of products of their enzymatic hydrolysis (DNR and its amino acid derivatives) inside B16-B16 cells. N-Leu-Leu-DNR was chosen as a reference drug since it is the product that is directly liberated by plasmin from Compound II, DNR.
# At determined time points (1, 3, 5 and 24 hours), the cells were washed, harvested and lysed by ultrasonication. The concentration of the drugs and metabolites in the cell lysates were determined after extraction and HPLC analysis (See General Methods, Section J.). The amounts of anthracycline derivatives found per mg of protein were then compared.
# human plasmin = molecular target: T1, human plasmin (Homo sapiens, UniProt P00747); assay: Hydrolysis by human plasmin; type: biochemical; conditions: for rate of in vitro hydrolysis by human plasmin: 0.17 mM, 0.1 units human plasmin, 25° C., 50 mM pH 8.0 TES buffer
# T1 construct: purchased Sigma
# T1 sequence (P00747 581-810 limits assumed): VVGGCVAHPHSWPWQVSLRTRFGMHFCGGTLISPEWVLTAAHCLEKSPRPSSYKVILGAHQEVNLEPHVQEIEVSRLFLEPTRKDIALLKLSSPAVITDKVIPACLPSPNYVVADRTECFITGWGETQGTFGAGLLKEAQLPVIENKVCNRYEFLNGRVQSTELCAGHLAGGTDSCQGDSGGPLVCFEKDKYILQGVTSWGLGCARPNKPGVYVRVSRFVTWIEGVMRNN
# T1 sequence (P00747 97-580 partner limits assumed): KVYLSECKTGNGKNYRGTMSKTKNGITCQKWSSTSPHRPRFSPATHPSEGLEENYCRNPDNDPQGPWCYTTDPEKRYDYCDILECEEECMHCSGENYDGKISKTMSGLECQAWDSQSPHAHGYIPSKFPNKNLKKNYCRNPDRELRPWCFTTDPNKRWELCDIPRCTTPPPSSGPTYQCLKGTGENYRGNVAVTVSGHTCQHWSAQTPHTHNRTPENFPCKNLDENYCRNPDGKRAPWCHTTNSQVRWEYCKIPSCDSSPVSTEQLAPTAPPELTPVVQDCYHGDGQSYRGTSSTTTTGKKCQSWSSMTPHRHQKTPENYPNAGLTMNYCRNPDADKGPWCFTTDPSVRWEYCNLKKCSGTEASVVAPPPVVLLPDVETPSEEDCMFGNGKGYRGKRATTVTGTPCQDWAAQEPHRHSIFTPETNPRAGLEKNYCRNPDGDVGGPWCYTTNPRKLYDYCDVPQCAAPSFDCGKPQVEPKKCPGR
# Procedure: In an eppendorf tube, 50 μl of the substrate at a concentration of 50 μM in DMF were mixed with 900 μl of TES buffer and 50 μl of an enzyme-containing solution. The mixture was incubated for 1 hour at 25° C. Fluorescence was determined (λexc=350 nm, λem=496 nm; fluorometer standardized with a 10 nM solution of 7-amido-4-methylcoumarin in PBS and the whole mixture excluding the enzyme). A dosage curve was done in parallel with known plasmin concentrations (at least five ½ dilutions). Plasmin activity was determined and expressed in IU/ml; μmole substrate transformed/min×ml.
# Compounds I, DNR and II, DNR (0.17 mM), as well as D-Ala-Leu-Lys-7-amido-4-methylcoumarin (0.17 mM) were incubated at 25° C. in the presence of 0.1 units of human plasmin in a 50 mM, pH 8.0 TES buffer. For Compounds I, DNR and II, DNR, HPLC samples were prepared and analyzed by HPLC (See General Methods, Section J). In case of D-Ala-Leu-Lys-7-amido-4-methylcoumarin, after 1 hour of incubation, the fluorescence of the resulting solution was determined at λexc=350 nm, λem=496 nm (See General Methods, Section N.).
# After 15, 45 and 60 min of incubation, triplicate aliquots were removed and the drugs and metabolites extracted prior to HPLC analysis (See General Methods, Section J.).
# [1] = tested on: medium conditioned by cultured B16-B16 cells; assay: Hydrolysis in medium conditioned by B16-B16 cells; type: in vitro ADME, murine; conditions: 17.24 μM, medium 20 times concentrated, 2 hours, 37° C.
# Procedure: Compounds I, DNR and II, DNR (17.24 μM) were incubated in a medium freshly conditioned by the cultured B16-B16 cells (20 times concentrated) for 2 hours at 37° C. After that time, triplicate aliquots were removed and the drugs and metabolites extracted prior to HPLC analysis (See General Methods, Section J.).
# [2] = tested on: MCF-7/6 human mammary carcinoma cells; assay: In vitro accumulation by cultured MCF-7/6 tumor cells; type: cell-based; conditions: 0.02 mM, 37° C., after 24 hours
# Procedure: Compound I, DNR was incubated in vitro at 37° C. in the presence of MCF-7/6 human mammary carcinoma cells and the intracellular accumulation of the compound or its potential metabolites were analyzed by HPLC and fluorimetry, after extraction of the drugs from the cells.
# Compound I, DNR was dissolved in distilled water at 17.24 μmole/ml and then diluted to obtain 0.02 mM in DMEM-F12 culture medium supplemented with 10% fetal calf serum (glutamax-I). Four ml of medium was poured in 25 cm^2 flasks (ref 3014. FALCON), and the cells were incubated for 30 minutes, 1, 3, 6 and 24 hours at 37° C. Then the cells were washed three times with PBS, and the cells were scraped from the flasks, and sonicated for 30 seconds at 100 Watts in a ice bath. Aliquots of 500 μl from each sample were then extracted with 1.8 ml of a chloroform:methanol mixture (4:1 by volume) to which 0.1 ml of 0.2 M borate buffer at pH 9.2, containing DOX at […] as internal standard, were added. After stirring, the organic layer was dried and resuspended in 400 μl of distilled water, sonicated 5 minutes at 100 Watts in a ice-bath and filtered through a 0.22 μm filter (Waters-Millipore, MILLEX-GV) and then analyzed by HPLC.
# On a aliquot of 100 μl, the protein content of the cell homogenate was determined.
compound,measurement,setting,value
N-Leu-Leu-DNR,intracellular level of metabolite DNR,"B16-B16 melanoma cells; B16-B16 cells, 3 hours",0.67±0.12 nmol/mg cell protein
same,intracellular level of metabolite L-Leu-DNR,"B16-B16 melanoma cells; B16-B16 cells, 3 hours",81.22±6.66 nmol/mg cell protein
same,intracellular level of the unchanged compound,"B16-B16 melanoma cells; B16-B16 cells, 3 hours of incubation",7.74±0.75 nmol/mg cell protein
same,intracellular level of metabolite L-Leu-DNR,"B16-B16 melanoma cells; B16-B16 cells, 24 hours",98.57±16.76 nmol/mg cell protein
same,intracellular level of the unchanged compound,"B16-B16 melanoma cells; B16-B16 cells, 24 hours",1.04±0.10 mmol/mg cell protein
same,intracellular level of metabolite DNR,"B16-B16 melanoma cells; B16-B16 cells, 24 hours (end of incubation)",1.60±0.77 nmol/mg cell protein
"Cc1cc(=O)oc2cc(NC(=O)[C@H](CCCCN)NC(=O)[C@H](CC(C)C)NC(=O)[C@@H](C)N)ccc12 [D-Ala-Leu-Lys-7-amido-4-methylcoumarin, reference compound] (H-[dA]-Leu-Lys-{AMC}; N-terminus assumed)",rate of in vitro hydrolysis by human plasmin,human plasmin,20.40 nmol/min/unit
same,hydrolysis in medium conditioned by B16-B16 cells,[1],Negative results
"COc1cccc2c1C(=O)c1c(O)c3c(c(O)c1C2=O)C[C@@](O)(C(C)=O)CC3OC1C[C@H](NC(=O)C(CC(C)C)NC(=O)C(CCCCN)NC(=O)C(CC(C)C)NC(=O)C(C)N)[C@H](C)[C@H](C)O1 (stereo partly drawn) [Compound I, DNR, D-Ala-Leu-Lys-Leu-DNR]",rate of in vitro hydrolysis by human plasmin,human plasmin,approximately 2.75 nmol/min/unit
same,accumulation by cultured MCF-7/6 cells,[2],approximately 0.1 μg/mg of cell proteins
same,hydrolysis in medium conditioned by B16-B16 cells,[1],Negative results
same,intracellular level of metabolite DNR,B16-B16 melanoma cells,0.015±0.002 mmol/mg cell protein
"COc1cccc2c1C(=O)c1c(O)c3c(c(O)c1C2=O)C[C@@](O)(C(C)=O)CC3OC1C[C@H](NC(=O)C(CC(C)C)NC(=O)C(CC(C)C)NC(=O)C(CCCCN)NC(=O)C(CC(C)C)NC(=O)C(C)N)[C@H](C)[C@H](C)O1 (stereo partly drawn) [Compound II, DNR, D-Ala-Leu-Lys-Leu-Leu-DNR] (H-[ξA][ξL][ξK][ξL][ξL]-X1)",rate of in vitro hydrolysis by human plasmin,human plasmin,27.90 nmol/min/unit
same,"hydrolysis by plasmin, times more rapid than Compound I, DNR",human plasmin; same conditions,at least 10 times
same,hydrolysis in medium conditioned by B16-B16 cells,[1],Negative results
